Non-standard residues stand in square brackets, D forms with d. No end group written: not given here. *: point of attachment. 2OEGgEgE‑C18 diacid = O=C(O)CCCCCCCCCCCCCCCCC(=O)N[C@@H](CCC(=O)N[C@@H](CCC(=O)NCCOCCOCC(=O)NCCOCCOCC(=O)*)C(=O)O)C(=O)O; NMeY = CN[C@@H](Cc1ccc(O)cc1)C(=O)O; Aib = CC(C)(N)C(=O)O
T1: full-length human GIPR with an N-terminal FLAG tag (human, UniProt P48546 22-466)
T1 sequence (looked up): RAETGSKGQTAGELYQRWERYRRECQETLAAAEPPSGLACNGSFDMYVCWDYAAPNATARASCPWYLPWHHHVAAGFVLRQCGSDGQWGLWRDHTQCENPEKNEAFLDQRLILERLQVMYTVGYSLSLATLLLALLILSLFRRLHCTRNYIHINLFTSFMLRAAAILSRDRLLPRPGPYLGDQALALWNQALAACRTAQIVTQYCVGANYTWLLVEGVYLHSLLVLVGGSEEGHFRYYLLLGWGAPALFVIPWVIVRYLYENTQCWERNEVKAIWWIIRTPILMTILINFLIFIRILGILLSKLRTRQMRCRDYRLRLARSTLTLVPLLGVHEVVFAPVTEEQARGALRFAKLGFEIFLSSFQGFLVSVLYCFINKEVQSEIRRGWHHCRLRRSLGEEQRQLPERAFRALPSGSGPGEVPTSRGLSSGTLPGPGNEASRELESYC

B1: Compound No. 49 (peptide)
peptide: [NMeY][Aib]EGTFISDYSIALDR[Aib]K(2OEGgEgE‑C18 diacid)Q[Aib]DFVNWLLAQRG-OH
modifications: N-terminus assumed
SMILES: CC[C@H](C)[C@H](NC(=O)[C@H](CO)NC(=O)[C@H](Cc1ccc(O)cc1)NC(=O)[C@H](CC(=O)O)NC(=O)[C@H](CO)NC(=O)[C@@H](NC(=O)[C@H](Cc1ccccc1)NC(=O)[C@@H](NC(=O)CNC(=O)[C@H](CCC(=O)O)NC(=O)C(C)(C)NC(=O)[C@H](Cc1ccc(O)cc1)NC)[C@@H](C)O)[C@@H](C)CC)C(=O)N[C@@H](C)C(=O)N[C@@H](CC(C)C)C(=O)N[C@@H](CC(=O)O)C(=O)N[C@@H](CCCNC(=N)N)C(=O)NC(C)(C)C(=O)N[C@@H](CCCCNC(=O)COCCOCCNC(=O)COCCOCCNC(=O)CC[C@H](NC(=O)CC[C@H](NC(=O)CCCCCCCCCCCCCCCCC(=O)O)C(=O)O)C(=O)O)C(=O)N[C@@H](CCC(N)=O)C(=O)NC(C)(C)C(=O)N[C@@H](CC(=O)O)C(=O)N[C@@H](Cc1ccccc1)C(=O)N[C@H](C(=O)N[C@@H](CC(N)=O)C(=O)N[C@@H](Cc1c[nH]c2ccccc12)C(=O)N[C@@H](CC(C)C)C(=O)N[C@@H](CC(C)C)C(=O)N[C@@H](C)C(=O)N[C@@H](CCC(N)=O)C(=O)N[C@@H](CCCNC(=N)N)C(=O)NCC(=O)O)C(C)C
B2: Compound No. 46 (peptide)
peptide: [NMeY][Aib]EGTFISDYSIALDR[Aib]K(2OEGgEgE‑C18 diacid)Q[Aib]NFVNWLLAQSG-OH
modifications: N-terminus assumed
SMILES: CC[C@H](C)[C@H](NC(=O)[C@H](CO)NC(=O)[C@H](Cc1ccc(O)cc1)NC(=O)[C@H](CC(=O)O)NC(=O)[C@H](CO)NC(=O)[C@@H](NC(=O)[C@H](Cc1ccccc1)NC(=O)[C@@H](NC(=O)CNC(=O)[C@H](CCC(=O)O)NC(=O)C(C)(C)NC(=O)[C@H](Cc1ccc(O)cc1)NC)[C@@H](C)O)[C@@H](C)CC)C(=O)N[C@@H](C)C(=O)N[C@@H](CC(C)C)C(=O)N[C@@H](CC(=O)O)C(=O)N[C@@H](CCCNC(=N)N)C(=O)NC(C)(C)C(=O)N[C@@H](CCCCNC(=O)COCCOCCNC(=O)COCCOCCNC(=O)CC[C@H](NC(=O)CC[C@H](NC(=O)CCCCCCCCCCCCCCCCC(=O)O)C(=O)O)C(=O)O)C(=O)N[C@@H](CCC(N)=O)C(=O)NC(C)(C)C(=O)N[C@@H](CC(N)=O)C(=O)N[C@@H](Cc1ccccc1)C(=O)N[C@H](C(=O)N[C@@H](CC(N)=O)C(=O)N[C@@H](Cc1c[nH]c2ccccc12)C(=O)N[C@@H](CC(C)C)C(=O)N[C@@H](CC(C)C)C(=O)N[C@@H](C)C(=O)N[C@@H](CCC(N)=O)C(=O)N[C@@H](CO)C(=O)NCC(=O)O)C(C)C

Legend:
[1] = target: T1, full-length human GIPR with an …; experiment: cell-based or functional assay
[2] = target: full-length human GLP-1R with an N-terminal FLAG tag (human, UniProt P43220 24-463); experiment: cell-based or functional assay

Binder	Human GIPR cAMP EC50, HEK293T [1] [nM]	Human GLP1R cAMP EC50, HEK293T [2] [nM]
B1	0.0006	107
YXEGTFISDYSIAXDRXAQXDFVNWLLAQRPSSGAPPPS (N-methyl Tyr 1; Aib at 2,17,20; Lys(G5-C18 diacid) at 14; C-terminal OH) [Compound No. 43]	0.001	61.7
YXEGTFISDYSIXXDRXAQXDFVNWLLAQSPSSGAPPPS (N-methyl Tyr 1; Aib at 2,13,17,20; Lys(G5-C18 diacid) at 14; C-terminal NH2) [Compound No. 48]	0.0007	87.1
YXEGTFISDYSIAXDRXAQXNFVNWLLAQRPSSGAPPPS (N-methyl Tyr 1; Aib at 2,17,20; Lys(G5-C18 diacid) at 14; C-terminal OH) [Compound No. 44]	0.0017	10.7
YXEGTFISDYSIAXDRXAQXNFVNWLLAQSPSSGAPPPS (N-methyl Tyr 1; Aib at 2,17,20; Lys(G5-C18 diacid) at 14; C-terminal OH) [Compound No. 45]	0.0006	8.22
YXEGTFISDYSIXXDRXAQXDFVNWLLAQSPSSGAPPPS (N-methyl Tyr 1; Aib at 2,13,17,20; Lys(G5-C18 diacid) at 14; C-terminal OH) [Compound No. 47]	0.0008	148
B2	0.0003	105

From US20230143604A1, “QW DOSING OF GIP RECEPTOR AGONIST PEPTIDE COMPOUNDS AND USES THEREOF” (TAKEDA PHARMACEUTICAL COMPANY LIMITED, priority 2020, published 2023)
